B1: KAT8 regulatory NSL complex subunit 2, residues 28 to 91; numbered along this chain, Q9H9L4 (parent)
chain: CAFTHRPCSHPRLEGQEFCIKHILEDKNAPFKQCSYISTKNGKRCPNAAPKPEKKDGVSFCAEH

Variants of: B1
Assay: abundance fitness (aPCA) (normalised: wild type 0, dead -1); higher = more abundant; growth selection in yeast, the domain comes from the species named
Conditions: Homo sapiens

Abundance fitness of substitutions, site by site:
C19: Y -1.38, E -1, K -0.572, F -1.16, Q -0.878, W -1.28, P -0.809, G -0.941, H -1.63, R -1.17, A -0.973, I -1.19, T -0.908, M -1.08, D -0.994, S -0.851, N -1.27
K27: R -0.12, A -0.019, F -0.3, H -0.094, I -0.091, D -0.172, C -0.194, P -0.091, L -0.158, W -0.215, V -0.104, G -0.191, M -0.269, Y -0.202, S -0.093, N -0.044, Q -0.149, E -0.079
F18: T -0.408, Q -0.642, H -0.454, A -0.572, K -0.472, S -0.59, E -0.622, L -0.139, N -0.61, C -0.334, D -0.547, Y -0.11, M -0.196, R -0.325, I -0.678, V -0.509, G -0.563, W -0.356
D26: E -0.157, K -0.177, Q -0.18, T -0.069, F -0.245, C -0.097, R -0.175, W -0.347, Y -0.223, M -0.195, A -0.084, G -0.197, S -0.117, N -0.081, V -0.16, I -0.072
I23: L -0.143, D -0.35, K -0.165, C -0.154, M -0.204, G -0.295, V -0.124, H -0.246, F -0.404, N -0.463, E -0.351, W -0.286, Y -0.296, Q -0.136, A -0.078, P -0.627, S -0.156, T -0.178
A29: E -0.308, N -0.22, K -0.186, M -0.204, I -0.358, G -0.128, L -0.217, D -0.225, C -0.151, S -0.048, T -0.133, P -0.225, W -0.422, R -0.167, H -0.208, Q -0.278, Y -0.287, V -0.196
S35: A -0.04, H -0.333, V -0.031, C 0.003, N -0.117, K -0.046, W -0.169, R -0.105, L -0.14, T -0.104, F -0.012, D -0.057, G -0.047, P -0.177, E -0.014, Y -0.113, I -0.177, Q -0.103
K32: N -0.073, H -0.185, D -0.136, R -0.041, A -0.075, C -0.146, S -0.093, E -0.026, I -0.135, P -0.211, Y -0.194, F -0.305, T -0.177
Q33: M -0.062, C -0.255, L 0.004, G -0.142, F -0.217, E -0.049, R -0.081, S -0.182, T 0.017, A 0.011, D -0.238, Y -0.071, K -0.05, N -0.11, P -0.036, I -0.124, V -0.03
N28: G -0.11, F -0.083, T -0.031, P -0.215, R -0.049, M -0.107, D -0.252, K -0.1, W -0.312, L -0.093, C -0.142, Q -0.069, V -0.121, S -0.006, E -0.07, H -0.028, A -0.118
K21: P -0.904, N -0.125, R -0.058, W -0.173, E -0.085, C -0.119, L -0.127, Q -0.117, M -0.159, G -0.121, S -0.125, H -0.005, Y -0.227, V -0.117, T -0.157, I -0.251, D -0.149, A -0.057, F 0.048
Q16: Y -0.187, W -0.226
E17: D -0.098, V -0.102, Y -0.106, W -0.26, A -0.207, R -0.216, G -0.252, M -0.041, C -0.112, I -0.036, H -0.129, S -0.105, T -0.051, Q -0.077, P -0.137, L -0.116, F -0.19, K -0.15, N -0.023
P30: H -0.253, N -0.178, E -0.251, Y -0.335, T -0.184, Q -0.279, M -0.261, W -0.514, F -0.368, K -0.156, A -0.205, D -0.155, V -0.256, I -0.162, S -0.136, G -0.074, L -0.188, C -0.275, R -0.198
F31: L -0.188, V -0.248, A -0.197, S -0.179, R -0.203, T -0.21, N -0.323, K -0.195, P -0.183, H -0.261, G -0.1, M -0.175, Y -0.195, W -0.116, I -0.391
I20: S -0.136, F -0.115, D -0.208, A -0.048, K -0.195, R -0.117, Q -0.091, W -0.201, H -0.179, C -0.14, Y -0.151, L -0.057, G -0.104, M -0.031, P -0.184, N -0.328, T -0.2, E -0.129
H22: D -0.904, A -0.769, V -1.36, F -1.81, R -0.812, T -0.877, K -0.678, W -1.4, M -1.16, N -0.768, S -0.729, I -1.41, C -0.383, G -0.789, L -1.34, Q -0.506, Y -1.07
L24: D -0.13, N -0.348, A -0.144, K -0.261, E -0.234, G -0.098, S -0.12, Q -0.147, R -0.164, P -0.134, F -0.195, Y -0.168, M -0.093, C -0.129, I -0.2, H -0.227
C34: F -0.664, P -0.346, Y -0.604, S -0.321, T -0.71, N -0.33, E -0.185, R -0.578, A -0.446, I -0.56, Q -0.41, H -0.453, V -0.541, W -0.674, G -0.339, K -0.484, M -0.542
E25: W -0.131, T -0.127, P -0.356, I -0.171, G -0.063, L -0.098, Y -0.05, D -0.188, C -0.223, V -0.069, N -0.203, H 0.053, F -0.065, M -0.092, R -0.099, S -0.111, K -0.23, A -0.132
Y36: E -0.183, D -0.162, C -0.173, A -0.096
